This experiment addresses human pituitary adenylate cyclase-activating polypeptide type I receptor (human) (UniProt P41586). As to the kind of experiment: cell-based or functional assay.

human pituitary adenylate cyclase-activating polypeptide type I receptor (human), sequence (P41586 21-468): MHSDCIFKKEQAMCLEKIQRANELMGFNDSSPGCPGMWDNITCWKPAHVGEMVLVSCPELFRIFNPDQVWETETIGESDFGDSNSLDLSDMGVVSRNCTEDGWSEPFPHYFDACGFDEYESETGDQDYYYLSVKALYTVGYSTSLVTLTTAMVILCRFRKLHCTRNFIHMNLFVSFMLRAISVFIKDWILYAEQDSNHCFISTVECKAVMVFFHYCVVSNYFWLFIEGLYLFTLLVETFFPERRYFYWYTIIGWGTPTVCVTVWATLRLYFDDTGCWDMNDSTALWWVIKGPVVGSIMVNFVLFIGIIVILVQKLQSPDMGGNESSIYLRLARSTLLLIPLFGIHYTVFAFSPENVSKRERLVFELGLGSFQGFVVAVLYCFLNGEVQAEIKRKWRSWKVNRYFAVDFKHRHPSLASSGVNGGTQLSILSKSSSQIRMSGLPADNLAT

B1: VIP (ligand, UniProt P01282 125-152, looked up)
peptide: HSDAVFTDNYTRLRKQMAVKKYLNSILN
For the molecule B1, the PAC1 EC50 (agonist activity) worked out at 2.3 nM.

The values above are taken from patent publication US20180362645A1.
